Reference: publication PMC2877719 (2010)
No end group written: not given here.

Each binder was assayed against calmodulin (Homo sapiens, UniProt P0DP23) (assay: FCS).

| Binder | Kd [nM] |
| --- | --- |
| FARLTRALTSSRGVL (also: fluorescent label, unspecified) [hEAG1 BD-N] | 45 |
| LRKRIVFRKI (also: GST fusion) | > 5000 |
| RRLFQRFRQQK (also: fluorescent label, unspecified) [hEAG1 BD-C2] | 223 |
| LRKRIVFRKI (also: fluorescent label, unspecified) | 327 |
